Reference: the DeepSol protein solubility set

Assay: soluble on expression in E. coli; label from the status in PepcDB or PDB records

| Sequence | soluble on expression in E. coli |
| --- | --- |
| MGSDKIHHHHHHMSNTNDLLNRINAKYSTMSKGHKLLATYITDNYDKAVFLTAAKMGETVGISESTVVRFATSLGYKGYPDFQKALEELVRNKLNSVQRMEVTYGRISQSQILETVLQSDRDKIKTTLEKIDADAFDLAVDTILQSRKIYIVGIRSCAPLASFLAFYMNLMFEDVCLLTTNSSSELFEQMVRIGKDDVIIGISFPRYSMRTLKALEFANNRSAKVITITDSIHSPMNLYSSCNLIADSDMASIVDSLVAPLSVINALIVALCMKKQNIVAKTLTELEDIWNEYQVYENDEIDYIDDSIKVHYAKLGDSQDE | not soluble |
| MSEALETGDPSPPPPIVSENGKTYYYLNSQESQAPNTPSPQEVPPKKMTNLFESGPLVYEDVAADIEAVTERASRRHYENKMVVKNSREMFDNVNILPDGRYYCCLCNRPYKTHATLTAHLRGYHLRNESSCDEPGCNFLSFTDQEKKRHRRTHDKKKKERNSQESMVIHEKIQKAVRRLDYPGEDELRDHLNGSTEVQGTIRTMTKKGKIRYACLKCPHSVFNAYHAARHVEMHNDFPKNCFYCGEIRKGTVDLQVHYMRVHKHEGIRTFKCSVCHLRFTTTILFRDHVECENGCQNPEIRQDIYYGELPEGTIVDDLTQDRLQNFRKRQEIWKTMGQMVEEHRTDVHEEIVGESSVQAGDTTVFDGSRAFIQTPFGLKTALEVKNTSRFCPRSGKRTSDDDLMITNKKRERLEMAPNLHFHQDIIHRLPTSTTTQRQNNAFQNEYLRPPVSYGYDPLIGRYPDFQLMSQSSLPSSSASSSSYDPFATAVYQDSDRNPMQPNDQHICDMNNVGAYETANFGLDNSSDLVVNEATIASNLMVNEVEDEVFEELNKLDFVMPADDGNDNDDDLEEVFNFGNVA | not soluble |
| MEYCRLDGDTGRLRTEIKHPRLLLFNPGHEMVPEIIGKKPYVPPPVVRSMMRDLGLLPAWLTKSEQDFVFCPEKTLPIPDTHPLKPEARLLQIPDTALPLNDYTLDMWGQSPVWLAALQHRFLWLSTVSAPYYPHELYERSHRCEAARCLEAIGHSEMAAHWFTSINDFLKERYHCFPPDSALLAKLPSSSSGRGLIWLSSSPTDDEIDLLTKALRRAGSFSVEPVLDVRQDWAAEFYSNGKGELYFVGWSRFDTNRWGAYLGNRLATQTDLVAELTQTVGAQAHEEAIASVKDYLRER | not soluble |
| QTNSPASIPHLILELLKCEPDEPQVQAKIMAYLQQEQSNRNRQEKLSAFGLLCKMADQTLFSIVEWARSSIFFRELKVDDQMKLLQNCWSELLILDHIYRQVAHGKEGTIFLVTGEHVDYSTIISHTEVAFNNLLSLAQELVVRLRSLQFDQREFVCLKFLVLFSSDVKNLENLQLVEGVQEQVNAALLDYTVCNYPQQTEKFGQLLLRLPELRAISKQAEDYLYYKHVNGDVPYNNLLIEMLHAKRA | soluble |
| MNVKPLQAKDVAEKVLFGELFILDVRNEADYEDWKIEGKQVSSINKPYFDLLDGVDHIVSELPKDKDVLVVCAKEGSSIFVAEQLTEAGLQNIYYLAGGMKAWSEYVKPIKVGNLKDGGSMYQFNRLGKGCLSYMVISNGEAAVIDAVRTAEAYEEFAKEHGVTIKNVMDTHLHADHISGGRKLAEKVGGTYWLPPKDAEEVVFSYEPLVEGSVITVGGTKIEIDALYSPGHTIGSTSFIVDDSYLLSGDILFVDSIGRPDLAGKAEDWVSDLRNTLYSRYKELSQNLVVLPAHYSKVSEMNESGIVSAKLKDLFANNAGLNIEDEGEFRKVVTENLPPQPNAYEEIRQTNMGKIHPSVDKEREMEIGPNRCAVHE | not soluble |
| MGSDKIHHHHHHMRSAAVDYAPSQAERRNFQRVRVKIYGRFMLEDRTEHPCQVVDMSPGNVAFRTDRIGMPGEKVIAYIDHIGRIEGVVTRTLQDGFAMTVIASDRKKDKLAAQLTWLANKHELDLPEDRRHERVAPRNPTSVLQLTDGRQYQCRIIDLSLSGAAIEIDVKPAIGVQVMLGTMRGQIVRHFEDGVAIEFAVIQRPETLDSEFNTPRA | not soluble |
| MSWVQLAGHTGSFKAAGTSGLILKRCSEPERYCLARLMADALRGCVPAFHGVVERDGESYLQLQDLLDGFDGPCVLDCKMGVRTYLEEELTKARERPKLRKDMYKKMLAVDPEAPTEEEHAQRAVTKPRYMQWREGISSSTTLGFRIEGIKKADGSCSTDFKTTRSREQVLRVFEEFVQGDEEVLRRYLNRLQQIRDTLEVSEFFRRHEVIGSSLLFVHDHCHRAGVWLIDFGKTTPLPDGQILDHRRPWEEGNREDGYLLGLDNLIGILASLAER | soluble |
| AVGTPITISVPSLPYANSASEIVLSQLRDIGFDVRLESTEFPSVWLSKVYKAKDYDMSVVAHVEARDIPNLFGNPDYYLGFDDEQVRELLAQADSGDADSYVSTMKKVVNRIMDQAGADTLFNLPNIVVTQPDVSGVPTNLVADGLVVSNISRSED | not soluble |
| SSSNSEKEWHIVPVSKDYFSIPNDLLWSFNTTNKSINVYSKCISGKAVYSFNAGKFMGNFNVKEVDGCFMDAQKIAIDKLFSMLKDGVVLKGNKINDTILIEKDGEVKLKLIRGI | soluble |
| MGSDKIHHHHHHMSKRMIITVGDARVGKSTVIKLLLEIFAQQGKRIKVYNQESFPVFQAYEHIATIKKFNLSNDDADAITDDLNHPELDVMIVDMPGQDIEKVIQYIESASLFEVVVKFGWNLTFLQPISHRKDCIYYLNAIIQNATNNANYVVVKNYHFAPEFREYEEKMRKKLLIIGGTEVELMALHRNHYQAMEKADKPYSQVCQDLSIILFWRSFIFQWIKKFHHSVMNNHLAIKYLGLD | not soluble |
| MAELYVKPGNKERGWNDPPQFSYGLQTQTGGPKRTPLTKRVAAPQDGSPRAPETSGPPPVDHPPPSSKASRPPPMGSCPATGVEPPSSPVIESETLIEDVLRPLEQALEDCHGHTKKQVCDDISRRLVLLREQWAGGKLSIPVKKRMALLVQELLHHQWDAADDIHRSLMVDYVTEVSQWMVGVKRLIAEKRSLSSEETKEEKFTVEPENQTIPGFQQPS | not soluble |
| MRGSHHHHHHTDPALRADYRKIIKEIGRGKNHARDLDRDTARGLYAHMLNGEVPDLELGGVLIALRIKGEGEAEMLGFYEAMQNHTIKLTPPAGKPMPIVIPSYNGARKQANLTPLLAILLHKLGFPVVVHGVSEDPTRVLTETIFELMGITPTLHGGQAQAKLDEHQPVFMPVGAFCPPLEKQLAMRWRMGVRNSAHTLAKLATPFAEGEALRLSSVSHPEYIGRVAKFFSDIGGRALLMHGTEGEVYANPQRCPQINLIDREGMRVLYEKQDTAGSELLPQAKDPETTAQWIERCLAGSEPIPESLKIQMACCLVATGEAATISDGLARVNQAFGLCGR | soluble |
| MQLYYLGPKGTFSYLACRQYFSEKETTFQPKSNLFEVIKAVADDDTSIGVVPIENSIEGTINIVADALAQQDVFAHGEIRLDINFALYGNGTDSISDIKKVYSIAPAISQTTNYIHQHQFDYDYVDSTIQSLTKIENGVAAIAPLGSGEAYGFTPIDTHIEDYPHNVTRFLVIKNQQQFDQNATSLMFLITPMHDKPGLLASVLNTFALFNINLSWIESRPLKTQLGMYRFFVQADSAITTDIKKVIAILETLDFKVEMIGAFNLEHHHHHH | not soluble |
| MQILTLISWDFKRNNNFFNQAVLNPYEYWADILEKNGISRYVILLTCNRVEIYLRAGFPEDLEAMKPNVLHDEEAIKHLMEVSSGLDSMSLGENEILKQVKEAYELSVRNGKVDKVLSLIFQKAIFVGKKVRSETEISRGKVSVPSIVYDILSSRVVQKVLIIGNGMIAGEIAPYLSGKFEVTIAGRNIDHVKDLASKYNYSYTTINDLHELIMRNDAIISATSSKTPIIRREEMVEGKLYIDLGNPRNIEDKPGADIITIDDIYSVSNRNGSARMESVDEARRIIEIEMASLMNKIKDVMIDEIFADFYKFAVVVQKMEIEKFSRMHPEIPASDVEAFAHSMINKVMNIPVMTLKSVARSQSNQDFSRIFSKFYDNFSDLVSAALQSYEGRQDTQSLRDRTRRLLQRS | not soluble |
| GEFGDEDLEELCPVCGDKVSGYHYGLLTCESCKGFFKRTVQNNKRYTCIENQNCQIDKTQRKRCPYCRFQKCLSVGMKLEAVRADRMRGGRNKFGPMYKRDRALKQQKKALIR | soluble |
